# Data from US20050064507.
# T1: PLEC1 peptide KRERKTSSKSSVRKRR (SEQ ID NO:81) (not fully specified)
# T1 chain: KRERKTSSKSSVRKRR
# T2: plectin peptide PLKEKKRERKTSSKSSVRKR (SEQ ID NO:125) (not fully specified)
# T2 chain: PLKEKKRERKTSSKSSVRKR
# T3: MARCKS peptide KKRFSFKKSFKLSGFSFKKN (SEQ ID NO:119) (not fully specified)
# T3 chain: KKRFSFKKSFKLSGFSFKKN
# T4: MacMARCKS peptide KKKFSFKKPFKLSGLSFKRN (SEQ ID NO:162) (not fully specified)
# T4 chain: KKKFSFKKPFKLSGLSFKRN
# T5: NCF1 peptide GAPPRRSSIRNAH (SEQ ID NO:101) (not fully specified)
# T5 chain: GAPPRRSSIRNAH
# T6: PLD1 peptide KYKAFIRIPIPTRRHTFRRQ (SEQ ID NO:161) (not fully specified)
# T6 chain: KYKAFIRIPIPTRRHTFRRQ
# T7: CHRM1 peptide RKIPKRPGSVHRTPSRQ (SEQ ID NO:83) (not fully specified)
# T7 chain: RKIPKRPGSVHRTPSRQ
# T8: DGKZ peptide KKKKRASFKRKSSKKG (SEQ ID NO:77) (not fully specified)
# T8 chain: KKKKRASFKRKSSKKG
# T9: MLK3 peptide QQVDRERPHVRRRRGTFKRS (SEQ ID NO:128) (not fully specified)
# T9 chain: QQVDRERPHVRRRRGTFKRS
# T10: PARIS1 peptide EYLERRASRRRAV (SEQ ID NO:138) (not fully specified)
# T10 chain: EYLERRASRRRAV
# T11: ERN1 peptide KLAVGRHSFSRRSGV (SEQ ID NO:94) (not fully specified)
# T11 chain: KLAVGRHSFSRRSGV
# T12: MARCKS peptide KKKKKRFSFKKSFKL (SEQ ID NO:80) (not fully specified)
# T12 chain: KKKKKRFSFKKSFKL
# T13: NEURL peptide ALRRPSLRREADD (SEQ ID NO:105) (not fully specified)
# T13 chain: ALRRPSLRREADD
# T14: p164-RhoGEF peptide PRLIRRGSKKRPAR (SEQ ID NO:124) (not fully specified)
# T14 chain: PRLIRRGSKKRPAR
# T15: NF1 peptide SQVQKQRSAGSFKRNSIKKI (SEQ ID NO:127) (not fully specified)
# T15 chain: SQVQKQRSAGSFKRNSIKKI
# T16: PARIS1 peptide EYLERRASRRRAV (SEQ ID NO:89) (not fully specified)
# T16 chain: EYLERRASRRRAV
# T17: fit1 peptide VQMTWSYPDEKNKRASVRRR (SEQ ID NO:158) (not fully specified)
# T17 chain: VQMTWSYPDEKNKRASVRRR
# T18: LIMK2 peptide KATTKKRTLRKNDRK (SEQ ID NO:108) (not fully specified)
# T18 chain: KATTKKRTLRKNDRK
# T19: AKAP12 peptide AGWRKKTSFRKPKED (SEQ ID NO:99) (not fully specified)
# T19 chain: AGWRKKTSFRKPKED
# T20: phospholemman peptide EEGTFRSSIRRLSTRRR (SEQ ID NO:116) (not fully specified)
# T20 chain: EEGTFRSSIRRLSTRRR
# T21: PSCD2 peptide AARKKRISVKKKQEQ (SEQ ID NO:93) (not fully specified)
# T21 chain: AARKKRISVKKKQEQ
# T22: PLEK peptide KFARKSTRRSIRLPE (SEQ ID NO:78) (not fully specified)
# T22 chain: KFARKSTRRSIRLPE
# T23: ERN1 peptide ISDFGLAKKLAVGRHSFSRR (SEQ ID NO:145) (not fully specified)
# T23 chain: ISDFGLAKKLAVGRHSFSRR
# T24: MCM2 peptide VQRHRSMRKTFARYLSFRRD (SEQ ID NO:129) (not fully specified)
# T24 chain: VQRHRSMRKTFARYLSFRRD
# T25: PARIS1 peptide RELEQLKAEYLERRASRRRA (SEQ ID NO:148) (not fully specified)
# T25 chain: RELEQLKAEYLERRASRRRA
# T26: gravin peptide KKFFTQGWAGWRKKTSFRKP (SEQ ID NO:154) (not fully specified)
# T26 chain: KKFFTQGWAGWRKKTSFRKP
# T27: FLJ20574 peptide GENVLKKSMKSRVKG (SEQ ID NO:113) (not fully specified)
# T27 chain: GENVLKKSMKSRVKG
# T28: ARHGAP4 peptide AGPLRKSSLKKGGRL (SEQ ID NO:98) (not fully specified)
# T28 chain: AGPLRKSSLKKGGRL
# T29: NR4A3 peptide KEVVRTDSLKGRRGR (SEQ ID NO:109) (not fully specified)
# T29 chain: KEVVRTDSLKGRRGR
# T30: CREB1 peptide EILSRRPSYRKILND (SEQ ID NO:106) (not fully specified)
# T30 chain: EILSRRPSYRKILND
# T31: Urotensin-2 receptor peptide LYARLARAYRRSQRASFKRA (SEQ ID NO:159) (not fully specified)
# T31 chain: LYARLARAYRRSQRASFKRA
# B1: PKC-zeta (protein)
# chain: MPSRTGPKMEGSGGRVRLKAHYGGDIFITSVDAATTFEELCEEVRDMCRLHQQHPLTLKWVDSEGDPCTVSSQMELEEAFRLARQCRDEGLIIHVFPSTPEQPGLPCPGEDKSIYRRGARRWRKLYRANGHLFQAKRFNRRAYCGQCSERIWGLARQGYRCINCKLLVHKRCHGLVPLTCRKHMDSVMPSQEPPVDDKNEDADLPSEETDGIAYISSSRKHDSIKDDSEDLKPVIDGMDGIKISQGLGLQDFDLIRVIGRGSYAKVLLVRLKKNDQIYAMKVVKKELVHDDEDIDWVQTEKHVFEQASSNPFLVGLHSCFQTTSRLFLVIEYVNGGDLMFHMQRQRKLPEEHARFYAAEICIALNFLHERGIIYRDLKLDNVLLDADGHIKLTDYGMCKEGLGPGDTTSTFCGTPNYIAPEILRGEEYGFSVDWWALGVLMFEMMAGRSPFDIITDNPDMNTEDYLFQVILEKPIRIPRFLSVKASHVLKGFLNKDPKERLGCRPQTGFSDIKSHAFFRSIDWDLLEKKQALPPFQPQITDDYGLDNFDTQFTSEPVQLTPDDEDAIKRIDQSEFEGFEYINPLLLSTEESV
# Columns and labels:
# [1] = target: T1, PLEC1 peptide KRERKTSSKSSVRKRR (SEQ ID …)
# [2] = target: T2, plectin peptide PLKEKKRERKTSSKSSVRKR …
# [3] = target: T3, MARCKS peptide KKRFSFKKSFKLSGFSFKKN …
# [4] = target: T4, MacMARCKS peptide KKKFSFKKPFKLSGLSFKRN …
# [5] = target: T5, NCF1 peptide GAPPRRSSIRNAH (SEQ ID …)
# [6] = target: T6, PLD1 peptide KYKAFIRIPIPTRRHTFRRQ (SEQ …)
# [7] = target: T7, CHRM1 peptide RKIPKRPGSVHRTPSRQ (SEQ ID …)
# [8] = target: T8, DGKZ peptide KKKKRASFKRKSSKKG (SEQ ID …)
# [9] = target: T9, MLK3 peptide QQVDRERPHVRRRRGTFKRS (SEQ …)
# [10] = target: T10, PARIS1 peptide EYLERRASRRRAV (SEQ ID …)
# [11] = target: T11, ERN1 peptide KLAVGRHSFSRRSGV (SEQ ID …)
# [12] = target: T12, MARCKS peptide KKKKKRFSFKKSFKL (SEQ ID …)
# [13] = target: T13, NEURL peptide ALRRPSLRREADD (SEQ ID …)
# [14] = target: T14, p164-RhoGEF peptide PRLIRRGSKKRPAR (SEQ …)
# [15] = target: T15, NF1 peptide SQVQKQRSAGSFKRNSIKKI (SEQ …)
# [16] = target: T16, PARIS1 peptide EYLERRASRRRAV (SEQ ID …)
# [17] = target: T17, fit1 peptide VQMTWSYPDEKNKRASVRRR (SEQ …)
# [18] = target: T18, LIMK2 peptide KATTKKRTLRKNDRK (SEQ ID …)
# [19] = target: T19, AKAP12 peptide AGWRKKTSFRKPKED (SEQ ID …)
# [20] = target: T20, phospholemman peptide EEGTFRSSIRRLSTRRR …
# [21] = target: T21, PSCD2 peptide AARKKRISVKKKQEQ (SEQ ID …)
# [22] = target: T22, PLEK peptide KFARKSTRRSIRLPE (SEQ ID …)
# [23] = target: T23, ERN1 peptide ISDFGLAKKLAVGRHSFSRR (SEQ …)
# [24] = target: T24, MCM2 peptide VQRHRSMRKTFARYLSFRRD (SEQ …)
# [25] = target: T25, PARIS1 peptide RELEQLKAEYLERRASRRRA …
# [26] = target: T26, gravin peptide KKFFTQGWAGWRKKTSFRKP …
# [27] = target: T27, FLJ20574 peptide GENVLKKSMKSRVKG (SEQ …)
# [28] = target: T28, ARHGAP4 peptide AGPLRKSSLKKGGRL (SEQ ID …)
# [29] = target: T29, NR4A3 peptide KEVVRTDSLKGRRGR (SEQ ID …)
# [30] = target: T30, CREB1 peptide EILSRRPSYRKILND (SEQ ID …)
# [31] = target: T31, Urotensin-2 receptor peptide …
protein,measurement,setting,value
B1,in vitro phosphorylation (% of best substrate),[1],10
same,"in vitro phosphorylation, 1 uM peptide (% of best substrate)",[2],13
same,"in vitro phosphorylation, 10 uM peptide (% of best substrate)",[2],12
same,"in vitro phosphorylation, 1 uM peptide (% of best substrate)",[3],20
same,"in vitro phosphorylation, 10 uM peptide (% of best substrate)",[3],20
same,"in vitro phosphorylation, 1 uM peptide (% of best substrate)",[4],7
same,"in vitro phosphorylation, 10 uM peptide (% of best substrate)",[4],4
same,in vitro phosphorylation (% of best substrate),[5],3
same,"in vitro phosphorylation, 1 uM peptide (% of best substrate)",[6],15
same,"in vitro phosphorylation, 10 uM peptide (% of best substrate)",[6],9
same,in vitro phosphorylation (% of best substrate),[7],4
same,in vitro phosphorylation (% of best substrate),[8],60
same,"in vitro phosphorylation, 1 uM peptide (% of best substrate)",[9],14
same,"in vitro phosphorylation, 10 uM peptide (% of best substrate)",[9],9
same,"in vitro phosphorylation, 1 uM peptide (% of best substrate)",[10],31
same,"in vitro phosphorylation, 10 uM peptide (% of best substrate)",[10],61
same,in vitro phosphorylation (% of best substrate),[11],10
same,in vitro phosphorylation (% of best substrate),[12],16
same,in vitro phosphorylation (% of best substrate),[13],4
same,"in vitro phosphorylation, 1 uM peptide (% of best substrate)",[14],45
same,"in vitro phosphorylation, 10 uM peptide (% of best substrate)",[14],32
same,"in vitro phosphorylation, 1 uM peptide (% of best substrate)",[15],19
same,"in vitro phosphorylation, 10 uM peptide (% of best substrate)",[15],19
same,in vitro phosphorylation (% of best substrate),[16],14
same,"in vitro phosphorylation, 1 uM peptide (% of best substrate)",[17],11
same,"in vitro phosphorylation, 10 uM peptide (% of best substrate)",[17],72
same,in vitro phosphorylation (% of best substrate),[18],1
same,in vitro phosphorylation (% of best substrate),[19],10
same,"in vitro phosphorylation, 1 uM peptide (% of best substrate)",[20],100
same,"in vitro phosphorylation, 10 uM peptide (% of best substrate)",[20],100
same,in vitro phosphorylation (% of best substrate),[21],1
same,in vitro phosphorylation (% of best substrate),[22],100
same,"in vitro phosphorylation, 1 uM peptide (% of best substrate)",[23],25
same,"in vitro phosphorylation, 10 uM peptide (% of best substrate)",[23],61
same,"in vitro phosphorylation, 1 uM peptide (% of best substrate)",[24],51
same,"in vitro phosphorylation, 10 uM peptide (% of best substrate)",[24],31
same,"in vitro phosphorylation, 1 uM peptide (% of best substrate)",[25],20
same,"in vitro phosphorylation, 10 uM peptide (% of best substrate)",[25],20
same,"in vitro phosphorylation, 1 uM peptide (% of best substrate)",[26],27
same,"in vitro phosphorylation, 10 uM peptide (% of best substrate)",[26],23
same,in vitro phosphorylation (% of best substrate),[27],1
same,in vitro phosphorylation (% of best substrate),[28],4
same,in vitro phosphorylation (% of best substrate),[29],2
same,in vitro phosphorylation (% of best substrate),[30],15
same,"in vitro phosphorylation, 1 uM peptide (% of best substrate)",[31],25
same,"in vitro phosphorylation, 10 uM peptide (% of best substrate)",[31],41
